Data: patent publication EP4775595A1

What was measured:
[1] = target: hIGF-1R-ECD-avi-his (human IGF-1R extracellular region) (human) (UniProt P08069); experiment: SPR (Biacore T200), antigen captured by anti-His antibody on CM5 chip, antibody as analyte
[2] = target: human IGF-1R on human non-small cell lung cancer cells (A549) (human) (UniProt P08069); experiment: cell-based or functional assay
Sequence of human IGF-1R on human non-small cell lung cancer cells (A549) (human) (P08069 31-1367): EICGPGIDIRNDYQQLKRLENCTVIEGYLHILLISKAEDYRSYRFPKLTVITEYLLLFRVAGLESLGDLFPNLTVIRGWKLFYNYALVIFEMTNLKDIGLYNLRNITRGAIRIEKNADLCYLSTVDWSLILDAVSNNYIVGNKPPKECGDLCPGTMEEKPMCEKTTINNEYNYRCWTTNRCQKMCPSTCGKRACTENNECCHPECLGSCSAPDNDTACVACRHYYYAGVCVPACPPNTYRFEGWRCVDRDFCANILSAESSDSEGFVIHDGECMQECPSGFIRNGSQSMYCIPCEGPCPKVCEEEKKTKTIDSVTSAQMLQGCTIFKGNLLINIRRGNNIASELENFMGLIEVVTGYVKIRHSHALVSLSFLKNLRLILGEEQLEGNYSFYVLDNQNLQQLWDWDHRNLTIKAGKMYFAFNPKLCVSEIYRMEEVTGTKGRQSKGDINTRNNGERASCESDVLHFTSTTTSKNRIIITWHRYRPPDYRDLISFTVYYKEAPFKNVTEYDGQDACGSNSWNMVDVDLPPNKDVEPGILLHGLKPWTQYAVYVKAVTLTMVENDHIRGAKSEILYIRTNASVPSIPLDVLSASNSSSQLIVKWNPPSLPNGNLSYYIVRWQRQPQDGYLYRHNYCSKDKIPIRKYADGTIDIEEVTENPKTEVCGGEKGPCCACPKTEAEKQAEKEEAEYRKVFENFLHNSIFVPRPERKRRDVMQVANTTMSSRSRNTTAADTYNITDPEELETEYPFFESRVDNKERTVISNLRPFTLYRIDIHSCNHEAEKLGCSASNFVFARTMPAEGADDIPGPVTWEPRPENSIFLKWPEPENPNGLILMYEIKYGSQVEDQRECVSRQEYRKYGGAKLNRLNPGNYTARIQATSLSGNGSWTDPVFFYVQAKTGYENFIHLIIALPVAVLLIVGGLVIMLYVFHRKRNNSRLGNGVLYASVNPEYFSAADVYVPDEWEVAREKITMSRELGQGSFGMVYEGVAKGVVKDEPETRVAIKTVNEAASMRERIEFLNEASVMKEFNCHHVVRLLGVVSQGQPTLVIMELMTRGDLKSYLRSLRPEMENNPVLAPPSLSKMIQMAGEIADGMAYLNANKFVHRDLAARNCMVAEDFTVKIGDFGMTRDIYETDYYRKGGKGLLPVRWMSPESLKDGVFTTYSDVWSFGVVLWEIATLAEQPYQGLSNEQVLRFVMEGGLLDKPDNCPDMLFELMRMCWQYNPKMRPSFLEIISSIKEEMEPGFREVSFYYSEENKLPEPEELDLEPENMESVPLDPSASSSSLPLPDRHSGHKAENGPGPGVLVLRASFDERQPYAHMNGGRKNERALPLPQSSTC

Sequence of hIGF-1R-ECD-avi-his (human IGF-1R extracellular region) (human) (P08069 other isoform, or with tags, fused parts or gaps limits assumed): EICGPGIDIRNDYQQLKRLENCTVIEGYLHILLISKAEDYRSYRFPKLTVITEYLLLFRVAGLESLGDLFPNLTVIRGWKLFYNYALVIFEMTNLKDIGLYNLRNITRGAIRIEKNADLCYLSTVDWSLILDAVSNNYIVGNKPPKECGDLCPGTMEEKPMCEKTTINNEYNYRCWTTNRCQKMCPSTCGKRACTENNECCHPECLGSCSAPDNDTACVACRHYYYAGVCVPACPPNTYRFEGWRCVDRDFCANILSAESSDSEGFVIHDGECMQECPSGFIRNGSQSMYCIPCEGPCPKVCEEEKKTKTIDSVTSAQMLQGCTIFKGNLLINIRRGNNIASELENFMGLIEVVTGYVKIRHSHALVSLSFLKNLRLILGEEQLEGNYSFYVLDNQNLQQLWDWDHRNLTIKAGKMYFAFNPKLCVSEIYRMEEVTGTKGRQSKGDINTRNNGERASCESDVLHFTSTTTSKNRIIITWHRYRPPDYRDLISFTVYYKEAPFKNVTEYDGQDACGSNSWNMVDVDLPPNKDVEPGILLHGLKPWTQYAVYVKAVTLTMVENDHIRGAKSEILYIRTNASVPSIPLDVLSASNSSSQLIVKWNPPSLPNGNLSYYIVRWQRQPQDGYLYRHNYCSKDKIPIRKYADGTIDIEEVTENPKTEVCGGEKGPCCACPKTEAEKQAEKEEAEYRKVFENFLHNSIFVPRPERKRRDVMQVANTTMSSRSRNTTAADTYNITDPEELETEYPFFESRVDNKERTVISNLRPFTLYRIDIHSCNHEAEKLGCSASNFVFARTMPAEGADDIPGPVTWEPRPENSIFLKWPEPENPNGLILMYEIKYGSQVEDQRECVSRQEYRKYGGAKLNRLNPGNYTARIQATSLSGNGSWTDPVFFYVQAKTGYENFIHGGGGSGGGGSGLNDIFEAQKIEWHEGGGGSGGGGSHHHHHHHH

| Kd [1] | koff [1] | kon [1] | IC50 (nM), inhibition of IGF1-induced pAKT signaling in A549 cells [2] | Substance |
| --- | --- | --- | --- | --- |
| 0.0175 nM | 1.47e-05 s⁻¹ | 839000 M⁻¹ s⁻¹ | 0.716 nM | VRDN-001 (Viridian, WO2023019171) (antibody) |
| 0.267 nM | 0.00109 s⁻¹ | 4.08e+06 M⁻¹ s⁻¹ | – | Tepezza (Horizon, US2022356257) (antibody) |
